# T1: human GPC3 (Homo sapiens, UniProt P51654)
# T1 construct: C-terminal glycophosphatidylinositol anchor (GPI link) (C); expressed in transfected cells; host or cells: 293S cells, transient
# T1 sequence (P51654 359-560): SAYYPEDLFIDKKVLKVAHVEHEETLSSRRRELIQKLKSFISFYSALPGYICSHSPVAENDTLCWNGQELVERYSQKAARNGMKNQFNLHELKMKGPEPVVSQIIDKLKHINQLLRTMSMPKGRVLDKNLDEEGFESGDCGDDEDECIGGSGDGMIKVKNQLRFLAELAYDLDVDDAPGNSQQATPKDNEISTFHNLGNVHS
# How the values were obtained:
# GPC3 [1] = target: T2, GPC3 (Homo sapiens, UniProt P51654); experiment: FACS binding to human GPC3 fragments expressed on 293S cells; design: C-terminal glycophosphatidylinositol anchor (GPI link) (C); expressed in transfected cells; host or cells: 293S cells, transient
# From the text: (§1) C-terminal truncation constructs of human GPC3 were made to further refine the epitopes for antibodies 7H1 and 4G7. […] The three C-terminal truncations each comprised the GPC N-terminal signal sequence (SS) and C-terminal glycophosphatidylinositol anchor (GPI link). […] See FIG. 7 (Santa Cruz Biotechnology antibody 1G12, which was raised to amino acids 511-580 of human GPC3, was used as a positive control for C-terminal fragment binding). Antibody 7H1 was reformatted as a chimeric antibody with human A118C cysteine-engineered IgG1 and Igκ constant regions (SEQ ID NOs: 42 and 43).
# GPC3 [2] = target: T2, GPC3; experiment: Western blot binding to C-terminal truncation constructs of human GPC3; design: C-terminal glycophosphatidylinositol anchor (GPI link) (C); expressed in transfected cells; host or cells: 293S cells, transient
# From the text: as §1
# GPC3 [3] = target: T2, GPC3; experiment: Reactivity by immunohistochemistry (IHC); assay type: binding; design: endogenous in cells
# From the text: (§2) Positive clones were expanded and re-screened for binding to huGPC3, cynoGPC3, and HepG2 cells by ELISA, FACS, and immunohistochemistry (IHC). Thirteen antibodies were selected and purified, including antibodies 7H1 and 4G7. The heavy and light chain variable region sequences of antibody 7H1 are shown in SEQ ID NOs: 2 and 3, respectively. The heavy and light chain variable region sequences of antibody 4G7 are shown in SEQ ID NOs: 26 and 27, respectively.
# (§3) Antibody 7H1 also detects human, cynomolgus monkey, rat, and mouse GPC3 by Western blot.
# Target sequence in this assay (P51654 25-554): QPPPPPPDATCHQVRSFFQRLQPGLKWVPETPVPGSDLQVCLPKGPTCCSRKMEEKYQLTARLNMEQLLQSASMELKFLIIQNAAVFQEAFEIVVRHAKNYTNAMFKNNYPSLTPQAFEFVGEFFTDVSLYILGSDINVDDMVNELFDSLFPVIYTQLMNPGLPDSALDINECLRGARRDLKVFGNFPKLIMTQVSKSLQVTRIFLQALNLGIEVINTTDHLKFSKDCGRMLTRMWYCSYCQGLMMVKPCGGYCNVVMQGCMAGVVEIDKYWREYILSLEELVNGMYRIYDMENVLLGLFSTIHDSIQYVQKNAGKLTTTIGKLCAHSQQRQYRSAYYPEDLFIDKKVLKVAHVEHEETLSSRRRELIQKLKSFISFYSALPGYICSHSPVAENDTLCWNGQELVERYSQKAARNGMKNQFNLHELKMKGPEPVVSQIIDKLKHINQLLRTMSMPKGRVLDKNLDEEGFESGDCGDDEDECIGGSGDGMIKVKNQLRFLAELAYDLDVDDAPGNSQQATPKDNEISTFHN
# GPC3 [4] = target: T2, GPC3; experiment: Binding to GPC3-expressing cells by FACS; design: endogenous in cells
# From the text: as §2, §3
# Target sequence in this assay (P51654 25-554): as above
# biotinylated GPC3 = biotinylated GPC3 (Homo sapiens, UniProt P51654); experiment: Epitope binning competition assay (Octet RED384); assay type: binding; settings: 7H1 or 4G7 as first saturating antibody 10 μg/ml; competing antibodies 5 μg/ml
# Chain of biotinylated GPC3 (P51654 25-554): as above
# Description: Epitope binning of anti-GPC3 antibodies was performed using a competition assay. Using the Octet RED384 instrument (ForteBio), biotinylated GPC3 was captured onto Streptavidin biosensors at 10 μg/ml for 600 seconds. Binding of the first antibody to saturation was achieved by adding 10 μg/ml for 600 seconds. The same biosensors were dipped into the competing antibodies at 5 μg/ml and binding was measured for 600 seconds. […] Antibody 7H1 was used as the first saturating antibody. A subsequent experiment was performed using antibody 4G7 as the first saturating antibody.
# GPC3 [5] = target: T2, GPC3; experiment: Western blot detection of human GPC3; assay type: binding
# From the text: as §3
# Target sequence in this assay (P51654 25-554): as above
# cynomolgus monkey GPC3 = experiment: Western blot detection of cynomolgus monkey GPC3; assay type: binding
# Chain of cynomolgus monkey GPC3 (as listed by the source): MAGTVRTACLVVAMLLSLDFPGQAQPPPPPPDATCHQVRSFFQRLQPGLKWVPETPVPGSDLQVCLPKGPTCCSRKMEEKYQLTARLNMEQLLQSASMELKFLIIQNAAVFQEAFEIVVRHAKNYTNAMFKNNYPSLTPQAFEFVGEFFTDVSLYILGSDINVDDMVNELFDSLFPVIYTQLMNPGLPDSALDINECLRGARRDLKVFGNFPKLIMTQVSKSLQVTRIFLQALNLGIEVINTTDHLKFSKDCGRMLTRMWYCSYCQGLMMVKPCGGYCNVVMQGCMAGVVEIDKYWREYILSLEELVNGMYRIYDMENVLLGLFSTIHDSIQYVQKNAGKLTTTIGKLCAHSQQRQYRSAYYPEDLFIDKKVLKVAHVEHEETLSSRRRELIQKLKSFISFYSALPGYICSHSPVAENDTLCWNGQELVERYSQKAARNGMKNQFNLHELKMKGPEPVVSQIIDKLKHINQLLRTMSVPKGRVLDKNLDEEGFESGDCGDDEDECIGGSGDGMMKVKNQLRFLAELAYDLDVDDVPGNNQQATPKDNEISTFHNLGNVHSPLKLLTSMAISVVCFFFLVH
# From the text: as §3
# mouse GPC3 = mouse GPC3 (Mus musculus, UniProt Q8CFZ4); experiment: Western blot detection of mouse GPC3; assay type: binding
# Chain of mouse GPC3 (Q8CFZ4 25-553): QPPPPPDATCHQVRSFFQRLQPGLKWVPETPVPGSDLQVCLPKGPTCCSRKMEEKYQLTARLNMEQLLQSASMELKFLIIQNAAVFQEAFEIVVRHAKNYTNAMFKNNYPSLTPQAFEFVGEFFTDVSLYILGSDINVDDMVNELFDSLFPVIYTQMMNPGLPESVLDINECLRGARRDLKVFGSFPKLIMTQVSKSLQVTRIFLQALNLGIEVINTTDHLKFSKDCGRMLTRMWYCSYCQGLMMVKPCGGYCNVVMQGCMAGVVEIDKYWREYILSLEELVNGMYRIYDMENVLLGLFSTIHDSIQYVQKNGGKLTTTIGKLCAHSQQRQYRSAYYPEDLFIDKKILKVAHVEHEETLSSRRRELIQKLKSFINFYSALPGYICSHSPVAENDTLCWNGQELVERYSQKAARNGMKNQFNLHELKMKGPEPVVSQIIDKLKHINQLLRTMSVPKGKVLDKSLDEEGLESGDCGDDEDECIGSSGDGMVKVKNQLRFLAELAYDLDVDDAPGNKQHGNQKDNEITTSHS
# From the text: as §3
# rat GPC3 = rat GPC3 (Rattus norvegicus, UniProt P13265); experiment: Western blot detection of rat GPC3; assay type: binding
# Chain of rat GPC3 (P13265 with tags, fused parts or gaps limits assumed): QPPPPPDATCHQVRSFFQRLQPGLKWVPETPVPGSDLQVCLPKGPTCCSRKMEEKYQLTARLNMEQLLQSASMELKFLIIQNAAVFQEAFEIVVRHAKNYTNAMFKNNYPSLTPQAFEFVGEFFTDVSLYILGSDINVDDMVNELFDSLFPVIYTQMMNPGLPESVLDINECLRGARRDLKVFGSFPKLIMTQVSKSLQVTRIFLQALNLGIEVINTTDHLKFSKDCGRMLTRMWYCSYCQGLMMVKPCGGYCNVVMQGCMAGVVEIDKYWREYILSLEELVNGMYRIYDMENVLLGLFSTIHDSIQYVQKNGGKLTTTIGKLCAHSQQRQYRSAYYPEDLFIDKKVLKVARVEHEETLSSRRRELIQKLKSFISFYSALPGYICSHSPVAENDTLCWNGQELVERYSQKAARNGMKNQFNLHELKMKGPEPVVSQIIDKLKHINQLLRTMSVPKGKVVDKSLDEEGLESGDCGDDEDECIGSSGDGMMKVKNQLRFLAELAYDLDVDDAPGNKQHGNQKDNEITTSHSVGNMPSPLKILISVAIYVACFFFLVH
# From the text: as §3
# human GPC3 = target: T1, human GPC3; experiment: FACS binding to human GPC3 fragments expressed on 293S cells; settings: C-terminal fragment, amino acids 359-560 of human GPC3, on 293S cells
# From the text: as §1
# [6] = N-terminal fragment, amino acids 25 to 358 of human GPC3, on 293S cells
Molecule,Binding by FACS (GPC3 [1]; [6]),"Binding by FACS (GPC3 [1]; amino acids 25 to 137 of human GPC3, transiently expressed on 293S cells)","Binding by FACS (GPC3 [1]; amino acids 25 to 247 of human GPC3, transiently expressed on 293S cells)",Binding by Western blot (GPC3 [2]; amino acids 25 to 137 of human GPC3),Binding by Western blot (GPC3 [2]; amino acids 25 to 247 of human GPC3),Binding by Western blot (GPC3 [2]; amino acids 25 to 358 of human GPC3),Reactivity by IHC (GPC3 [3]; HepG2 cells),Reactivity by IHC (GPC3 [3]; JHH cells),Reactivity by IHC (GPC3 [3]; cells stably transfected with GPC3),Reactivity by IHC (GPC3 [3]; hepatic cancer tissue microarray),Reactivity by FACS (GPC3 [4]; 293S cells expressing GPC3),Reactivity by FACS (GPC3 [4]; HepG2 X1 cells),Epitope bin (biotinylated GPC3),Detection by Western blot (GPC3 [5]),Detection by Western blot (cynomolgus monkey GPC3),Detection by Western blot (mouse GPC3),Detection by Western blot (rat GPC3),Binding by FACS (human GPC3)
"7H1: anti-GPC3 monoclonal antibody; heavy and light chain variable regions SEQ ID NOs: 2 and 3 (antibody, V domains shown) VH: QVQLQQSGPELVKPGASVKISCKASGYTFTDYYINWVKQKPGQGLEWIGWIYPGSGHTECNETFKGKATLTVDTSSSTAYMQLSSLTSEDTAVYFCTRGYYAPMGYFDYWGQGTTLTVSS VL: DIQMTQSPSSLSASLGERVSLTCRASQEISGYLSWLQQKPDGTIKRLIYAASTLDSGVPKRFSGSRSGSDYSLTISGLESEDFADYYCLQYASYPYTFGGGTKLEIK",bind,bind,bind,bind,bind,bind,react strongly,react strongly,react strongly,react strongly,react strongly,react strongly,different epitope bins,detects,detects,detects,detects,–
"4G7: anti-GPC3 monoclonal antibody; heavy and light chain variable regions SEQ ID NOs: 26 and 27 (antibody, V domains shown) VH: EVQLQQSGTVLARPGASVKMSCKASGYTFTSYWVHWVKQRPGQGLEWIGAIYPGNIDASYNQKFKGKAKLTAVTSTSTAYMELSSLTNEDSAVYYCSYDYDAWFVYWGQGTLVTVSA VL: DIQMTQSHKFMSTSVGDRVSITCKASQDVSTAVAWYQQKPGQSPTLLIYSASYRYTGVPDRFTGSGSGTDFTFTISSVQAEDLAVYYCQQHYFTPRTFGGGTKLELK",did not show significant binding,–,–,–,–,–,–,–,–,–,react strongly,react strongly,different epitope bins,–,–,–,–,did not show significant binding

# From patent US9926377B2, “Anti-GPC3 antibodies and immunoconjugates” (GENENTECH, INC., priority 2014, dated 2018)
